The target in series [1] is TEBP-1-His5 (Caenorhabditis elegans) (UniProt O62329). The series can be described thus: fluorescence polarization. The note with it: FP: 20 mM HEPES pH 7.0, 100 mM NaCl, 5% glycerol, 20 nM probe, 10 min at RT; pull-down: 50 mM Tris/HCl pH 7.5, 150 mM NaCl, 0.5% NP-40, 5 mM MgCl2, 1 mM DTT …. (In general: In fluorescence polarisation assays a small probe gives low polarisation when free and higher when bound to something large.)

In series [2] the target is TEBP-2-His5 (Caenorhabditis elegans) (UniProt Q22429). The series can be described thus: fluorescence polarization. As to conditions: FP: 20 mM HEPES pH 7.0, 100 mM NaCl, 5% glycerol, 20 nM probe, 10 min at RT; pull-down: 50 mM Tris/HCl pH 7.5, 150 mM NaCl, 0.5% NP-40, 5 mM MgCl2, 1 mM DTT ….

The term Kd denotes a measure of binding affinity in units of concentration. Lower therefore signals a tighter complex.

TEBP-2-His5 (Caenorhabditis elegans), sequence (Q22429 entry or part of it): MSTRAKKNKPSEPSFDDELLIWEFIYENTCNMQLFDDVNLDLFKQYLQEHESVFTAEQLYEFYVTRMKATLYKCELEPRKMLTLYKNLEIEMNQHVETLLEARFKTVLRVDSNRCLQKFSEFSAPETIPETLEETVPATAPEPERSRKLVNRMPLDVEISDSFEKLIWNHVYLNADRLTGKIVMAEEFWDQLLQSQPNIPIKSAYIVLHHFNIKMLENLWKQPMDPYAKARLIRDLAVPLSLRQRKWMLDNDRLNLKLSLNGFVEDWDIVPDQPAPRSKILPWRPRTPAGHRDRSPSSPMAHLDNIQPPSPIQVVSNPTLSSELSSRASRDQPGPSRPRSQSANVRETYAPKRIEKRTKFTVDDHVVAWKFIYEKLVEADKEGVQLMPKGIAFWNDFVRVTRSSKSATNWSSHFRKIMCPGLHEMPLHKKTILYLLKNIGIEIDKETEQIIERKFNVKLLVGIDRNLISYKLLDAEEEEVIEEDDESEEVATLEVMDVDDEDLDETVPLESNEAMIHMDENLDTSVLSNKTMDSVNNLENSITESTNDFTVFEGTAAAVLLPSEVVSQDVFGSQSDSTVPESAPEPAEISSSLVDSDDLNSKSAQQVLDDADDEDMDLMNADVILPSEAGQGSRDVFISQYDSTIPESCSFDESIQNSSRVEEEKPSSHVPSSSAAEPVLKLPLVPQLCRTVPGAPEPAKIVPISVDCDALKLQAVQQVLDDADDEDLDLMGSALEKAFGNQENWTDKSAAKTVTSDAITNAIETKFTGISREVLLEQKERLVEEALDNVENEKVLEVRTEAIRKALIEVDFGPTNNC

Turning to “CTGTTAGGCTTAGGCTTAG (double strand) [2.5x TTAGGC ds]”, the Kd in series [1] is 129 nM; in series [2] it was 37.8 nM.

Values taken from article PMC8113555.
